Tests used:
[1] = target: Mth1491 homotrimer with a cysteine introduced at position 92, modified with azo maleimide 3 (Methanobacterium thermoautotrophicum); assay: affinity chromatography on beta-cyclodextrin resin with LC-MS of fractions; Mth1491 modified to about 50% with azo maleimide 3, eluted from a column packed with resin 4 (beta-cyclodextrin on sepharose CL-4B); four peaks for the modification states of the trimer; isolated singly and doubly modified species repurified; trimer disassembles upon LC-MS
[2] = target: Mth1491 homotrimer with a cysteine introduced at position 92, tagged, azo-cleaved, AF-labelled and protected with Ellman's reagent (Methanobacterium thermoautotrophicum); assay: dynamic light scattering; average particle size before and after protection with Ellman's reagent (5.5 ± 0.3 nm to 7.4 ± 0.9 nm)

stoichiometry N [1]	stoichiometry N [2]	Substance
3		Mth1491 homotrimer with a cysteine introduced at position 92, modified with azo maleimide 3 (natural protein)
	3	Mth1491 homotrimer with a cysteine introduced at position 92, tagged, azo-cleaved, AF-labelled and protected with Ellman's reagent (natural protein)

Source: PMC5495134
